The target of one experiment is T1, FP receptor (Sus scrofa, UniProt C6GAG8).
T1 construct: from tissue; host or cells: eyecup / retinal microvessels of newborn pigs pretreated with ibuprofen
Kind of experiment: Porcine eyecup model of ex vivo vasomotricity assay, PGF2α-induced constriction of retinal microvessels. As to conditions: for change of inhibitory activity of the peptide variant relative to the parent peptide: peptides at 100 μM, porcine retinal vasomotricity assay, structure-activity summary; for % Vasomotor response (of max constriction): compared to maximal constriction without peptide. Also on record: species or system pig. An excerpt: In order to see if the peptides could inhibit FP function using an ex vivo model, we chose porcine eyecup model, an ex vivo assay of vascular constriction in porcine retinas which we previously described and validated (Li et al., 1996 J. Pharmacol. Expt. Therapeut. 278: 370–377; Li et al., 1997 Am. J. Physiol. 273: R1283–90; Abran et al., 1997 Am. J. Physiol. 272: R995–1001). Since FP receptor densities in newborn vasculature are minimal due to down regulation by high levels of circulating prostaglandins in the perinatal period, the newborn pigs were treated with a prostaglandin synthetase blocker, ibuprofen (30 mg/Kg of bodyweight/8 h for 24 h) to increase the density of the receptors as well as their vasomotor effects. By inhibiting circulating prostaglandins, we were able to show potent inhibition of FP receptor-mediated second messenger synthesis as well as FP-mediated vascular constriction in this eyecup model.
To prepare eyecups, a circular incision was made 3–4 mm posterior to ora serrata to remove the […] segment and vitreous body with minimal handling of the retina. The remaining eyecup was fixed with pins to a wax base in a 20 ml tissue bath containing 20 ml of Kreb's buffer (pH 7.35–7.45), protease inhibitors, leupetin and aprotinin (10 μg/ml each), and equilibrated with 21% oxygen and 5% carbon dioxide at 37° C. The preparations were allowed to stabilize for 30 min. Peptides at 100 μM were added and incubation was continued for 30 min before the addition of PGF2α.
Cumulative concentration-responses of PGF2α, and TxA2 mimetic, U46619, (10^−10 to 10^−5 M) curves were constructed separately. To assess the reversibility of the antagonists, the eyecups were thoroughly washed (which would wash away the peptide) with incubation medium and concentration response curves for PGF2α were determined. The outer vessel diameter was recorded with a video camera mounted on a dissecting microscope (Zeiss M 400™) and the responses were quantified by a digital image analyzer (Sigma Scan Software, Jandel Scientific, Corte Madera, Calif.). Vascular diameter was recorded before and 10 min following the topical application of the agent.
^1Percent vasomotor response in the presence of 100 μM peptide is calculated as percent change in average vascular diameter produced by 10^−7 M PGF2α to the eyecup in the presence of the peptide compared to maximal constriction observed in the absence of the peptide.
^2Percent inhibition produced by each peptide is calculated as (100-percent vasomotor response).
Small letters indicate L-amino acids and capital letters indicate D-amino acids. I=isoleucine; L=leucine; G=glycine; H=histidine; R=Arginine; D=Aspartic acid; Y=Tyrosine; K=Lysine; A=Alanine; W=Tryptophan; E=Glutamic acid; F=Phenyl alanine; Q=Glutamine; N=Aspargine; P=Proline; S=Serine; X=Cyclohexyl alanine. Peptides were dissolved in DMSO freshly just before the experiment as 10 mM stocks and added to the eye cups 30 min before the addition of 10^−7 M PGF2α.
These peptides incorporate L- to D-amino acid changes, deletions, subtle variations in aromaticity, hydrogen bond donor status as opposed to ionic interactions and hydrophobicity.

Another experiment concerns the target T2, human FP receptor (Homo sapiens, UniProt P43088).
T2 construct: expressed in transfected cells
Kind of experiment: PGF2α-induced phosphoinositide hydrolysis (inositol phosphate synthesis) in HEK293 cells expressing FP receptor. As to conditions: HEK293 cells stably expressing human FP receptor; 1 μM PGF2α; read-out: half maximal inhibitory concentration, inositol phosphate synthesis. Format: cell-based. As to the method:
Both PCP-8 and -10 were tested in HEK293 cells expressing the human FP receptor. For this purpose, HEK 293 cells stably expressing human FP receptor were plated in 12-well plates in DMEM medium containing 10% fetal bovine serum, penicillin (10 U/ml) and streptomycin (10 μg/ml) and cultured in a humidified atmosphere containing 5% CO2 at 37° C. After the wells were 80% confluent, the cells were labeled with 2 μCi/ml of [^3H]-myo inositol overnight. Next day, the cells were washed once with PBS, and incubated in 0.5 ml of Kreb's buffer containing 10 mM LiCl and indicated concentrations of PCP peptides for 30 min. PGF2α at 1 μM was added to the cells and the incubation was carried out for an additional 30 min. The cells were solubilized with 0.1 N NaOH for 10 min and neutralized with 0.1 N formic acid. The lysates were collected and 1 ml each of methanol and chloroform were sequentially added and vortexed briefly. After centrifugation to separate the phases, inositol phosphates were separated by ion exchange chromatography as described below (Berridge, M. J. et al., 1983, Biochem. J. 212:473–482).
Briefly, the medium was discarded and the IP3 synthesis was stopped by adding 0.6 ml ice-cold methanol. The cells were scraped and collected into polypropylene tubes. Distilled water (0.5 ml) and chloroform (0.6 ml) were added and vigorously vortexed for 2 min. The phases were separated by centrifugation at 6000×g for 10 min. The aqueous phase was applied to AG-1X-8™ (Formate form) anion exchange columns (1 ml bed volume) and free inositol was eluted with 10 ml of water, followed by 60 mM ammonium formate in 0.1 M formic acid. Then, the inositol phosphates were eluted with 5 ml of 1.2 M ammonium formate in 0.1 M formic acid. After adding 3 volumes of scintillation cocktail (Optiphase-HiSafe III), the eluates were counted by scintillation spectrophotometry.
Data are expressed as fold stimulation of inositol phosphate synthesis by 1 μM PGF2α compared to the unstimulated controls. […] The half maximal inhibitory concentrations for both PCP-8 and -10 were slightly less than 100 μM.

Setting [1] is: 100 μM peptide, 10^−7 M PGF2α, calculated as 100-percent vasomotor response.

Square brackets hold non-standard residues; d marks the D form. Ends that are not written are not given here. Where only a bound is given, the exact number is not on record here.

T1 sequence (C6GAG8 1-362): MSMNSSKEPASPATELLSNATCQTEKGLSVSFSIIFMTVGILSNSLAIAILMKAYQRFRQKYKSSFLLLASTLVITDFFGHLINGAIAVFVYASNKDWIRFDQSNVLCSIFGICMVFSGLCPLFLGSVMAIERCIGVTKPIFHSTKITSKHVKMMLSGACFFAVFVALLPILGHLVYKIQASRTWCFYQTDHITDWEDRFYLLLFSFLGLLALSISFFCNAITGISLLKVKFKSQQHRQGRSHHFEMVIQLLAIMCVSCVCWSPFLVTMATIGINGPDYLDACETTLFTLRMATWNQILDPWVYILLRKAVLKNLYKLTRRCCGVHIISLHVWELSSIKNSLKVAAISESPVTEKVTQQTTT
T2 sequence (P43088 whole entry): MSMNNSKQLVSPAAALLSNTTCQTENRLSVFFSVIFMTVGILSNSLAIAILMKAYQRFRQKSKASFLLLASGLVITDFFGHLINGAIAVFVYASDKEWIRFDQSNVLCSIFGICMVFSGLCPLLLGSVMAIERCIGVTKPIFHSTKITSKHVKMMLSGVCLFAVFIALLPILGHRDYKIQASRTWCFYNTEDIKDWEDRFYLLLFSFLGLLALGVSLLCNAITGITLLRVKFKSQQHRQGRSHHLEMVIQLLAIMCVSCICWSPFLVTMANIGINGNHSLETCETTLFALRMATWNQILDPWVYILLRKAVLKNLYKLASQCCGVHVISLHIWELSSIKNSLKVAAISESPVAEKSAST

Take “PCP-13.16: PCP-13 with glycine changed to proline ([dI][dL][dP][dH][dR][dD][dY][dK])”: in the experiment with FP receptor, the “change of inhibitory activity of the peptide variant relative to the parent peptide” value is “loss of activity”.

Regarding “PCP-13.9: PCP-13 with terminal lysine substituted with W ([dI][dL]G[dH][dR][dD][dY][dW])”, in the experiment with FP receptor, the “change of inhibitory activity of the peptide variant relative to the parent peptide” value is recorded as “complete loss of activity”.

As to “PCP-12: PCP-10 with the N-terminal hydrophobic dipeptide sequence removed (DRFYLL)”, the “change of inhibitory activity of the peptide variant relative to the parent peptide” value with FP receptor was “significant reduction in the inhibitory action”.

Regarding “PCP-13.15: PCP-13 with deletion of terminal lysine ([dI][dL]G[dH][dR][dD][dY])”, in the experiment with FP receptor, the “change of inhibitory activity of the peptide variant relative to the parent peptide” value is recorded as “complete loss of activity”.

Regarding “ILAHRDYK (Peptide antagonist derived from the sequence of the Prostaglandin F2-alpha receptor.) [PCP-13.7]”, the “% inhibition of maximal response” value with FP receptor (setting [1]) is on record as 76.2%. The “% Vasomotor response (of max constriction)” value (shortened to “% Vasomotor response”) in the experiment with FP receptor (100 μM peptide, 10^−7 M PGF2α) is on record as 23.8%. In addition, the “change of inhibitory activity of the peptide variant relative to the parent peptide” value with FP receptor is on record as “does not change the activity”.

As to “PCP-13.12: PCP-13 with D changed to E ([dI][dL]G[dH][dR][dE][dY][dK])”, in the experiment with FP receptor, the “change of inhibitory activity of the peptide variant relative to the parent peptide” value is listed as “loss of half of the inhibitory activity”.

Consider “SNVLCSIF (Peptide antagonist derived from the sequence of the Prostaglandin F2-alpha receptor.) [PCP-15]”, for which the “% inhibition of maximal response” value in the experiment with FP receptor (setting [1]) is recorded as 88.1%. Further, the “% Vasomotor response” value in the experiment with FP receptor (100 μM peptide, 10^−7 M PGF2α) came out at 11.9%.

As for “ILGHRNYK (Peptide antagonist derived from the sequence of the Prostaglandin F2-alpha receptor.) [PCP-13.14]”, the “% inhibition of maximal response” value with FP receptor (setting [1]) was 59.7%. The “% Vasomotor response” value with FP receptor (100 μM peptide, 10^−7 M PGF2α) was 40.3%. Besides, the “change of inhibitory activity of the peptide variant relative to the parent peptide” value in the experiment with FP receptor is “moderate loss of activity”.

As to “ILGHRDYK-amide ([dI][dL]G[dH][dR][dD][dY][dK]-NH2) [PCP-13.21]”, the “% inhibition of maximal response” value in the experiment with FP receptor (setting [1]) was 53.8%. Further, the “% Vasomotor response” value with FP receptor (100 μM peptide, 10^−7 M PGF2α) came to 46.2%. For the same substance, the “change of inhibitory activity of the peptide variant relative to the parent peptide” value with FP receptor was “moderate gain of activity”.

On to “PCP-13.17: PCP-13 with the glycine residue deleted ([dI][dL][dH][dR][dD][dY][dK])”, for which, in the experiment with FP receptor, the “change of inhibitory activity of the peptide variant relative to the parent peptide” value was “loss of activity”.

Take “ILGWRDYK (Peptide antagonist derived from the sequence of the Prostaglandin F2-alpha receptor.) [PCP-13.22]”: the “% inhibition of maximal response” value with FP receptor (setting [1]) is reported as 83.4%. Besides, the “% Vasomotor response” value with FP receptor (100 μM peptide, 10^−7 M PGF2α) came out at 16.6%. Besides, in the experiment with FP receptor, the “change of inhibitory activity of the peptide variant relative to the parent peptide” value is on record as “did not result in significant reduction of peptide inhibitory potency”.

For “PCP-13.10: PCP-13 with aromatic residue Y substituted with E ([dI][dL]G[dH][dR][dD][dE][dK])”, the “change of inhibitory activity of the peptide variant relative to the parent peptide” value in the experiment with FP receptor was “completely abolished the inhibitory potency”.

“ILGFRDYK (Peptide antagonist derived from the sequence of the Prostaglandin F2-alpha receptor.) [PCP-13.11]”: the “% inhibition of maximal response” value with FP receptor (setting [1]) is on record as 87.0%. For the same substance, the “% Vasomotor response” value with FP receptor (100 μM peptide, 10^−7 M PGF2α) is 13.0%. The “change of inhibitory activity of the peptide variant relative to the parent peptide” value in the experiment with FP receptor is on record as “did not result in significant reduction of peptide inhibitory potency”.

As for “PCP-13.19: PCP-13 with a serine substitution of D ([dI][dL]G[dH][dR][dS][dY][dK])”, the “change of inhibitory activity of the peptide variant relative to the parent peptide” value with FP receptor is “drastic loss of activity”.

For the substance “ILGHRDYK (Peptide antagonist derived from the sequence of the Prostaglandin F2-alpha receptor.) [PCP-13]”, the “% inhibition of maximal response” value with FP receptor (setting [1]) is given as 80.0%. Besides, the “% Vasomotor response” value in the experiment with FP receptor (100 μM peptide, 10^−7 M PGF2α) came out at 20.0%. Besides, in the experiment with FP receptor, the “change of inhibitory activity of the peptide variant relative to the parent peptide” value is listed as “increased the inhibitory potency dramatically”.

With “PCP-13.23: PCP-13 with H changed to Y ([dI][dL]G[dY][dR][dD][dY][dK])”, the “change of inhibitory activity of the peptide variant relative to the parent peptide” value in the experiment with FP receptor was “significant reduction of peptide inhibitory potency”.

Consider “YQDRFYLL (Peptide antagonist derived from the sequence of the Prostaglandin F2-alpha receptor.) [PCP-14]”, for which the “% inhibition of maximal response” value in the experiment with FP receptor (setting [1]) was 64.0%. The “% Vasomotor response” value in the experiment with FP receptor (100 μM peptide, 10^−7 M PGF2α) amounted to 36.0%.

For WEDRFYLL [PCP-10, wedrfyll], the IC50 on human FP receptor is less than 100 µM. The Emax on FP receptor (100 μM peptide, 10^−7 M PGF2α, calculated as 100-percent vasomotor response, read-out: % inhibition of maximal response) is 80%. For the same substance, the “% Vasomotor response” value on FP receptor (100 μM peptide, 10^−7 M PGF2α) is listed as 20.0%.

Consider “ILGHQDYK (Peptide antagonist derived from the sequence of the Prostaglandin F2-alpha receptor.) [PCP-13.18]”, for which, in the experiment with FP receptor (setting [1]), the “% inhibition of maximal response” value is 70.0%. Moreover, the “% Vasomotor response” value with FP receptor (100 μM peptide, 10^−7 M PGF2α) is recorded as 30.0%. Also, the “change of inhibitory activity of the peptide variant relative to the parent peptide” value in the experiment with FP receptor is given as “affected the activity of PCP-13 moderately”.

For “PCP-11: PCP-8 with the N-terminal hydrophobic dipeptide sequence removed (GHRDYK)”, the “change of inhibitory activity of the peptide variant relative to the parent peptide” value in the experiment with FP receptor is given as “significant reduction in the inhibitory action”.

For “ILGHRDY-amide ([dI][dL]G[dH][dR][dD][dY]-NH2) [PCP-13.20]”, the “% inhibition of maximal response” value with FP receptor (setting [1]) is 50.4%. Moreover, the “% Vasomotor response” value in the experiment with FP receptor (100 μM peptide, 10^−7 M PGF2α) turned out to be 49.6%. Also, the “change of inhibitory activity of the peptide variant relative to the parent peptide” value with FP receptor is “moderate gain of activity”.

For the substance “ILaHRDYK ([dI][dL]A[dH][dR][dD][dY][dK]; not fully specified (residue 3); printed as ILaHRDYK) [PCP-13.8]”, in the experiment with FP receptor (setting [1]), the “% inhibition of maximal response” value is recorded as 53.2%. Also, the “% Vasomotor response” value with FP receptor (100 μM peptide, 10^−7 M PGF2α) is reported as 46.8%. Further, in the experiment with FP receptor, the “change of inhibitory activity of the peptide variant relative to the parent peptide” value is listed as “loss of activity”.

(Values after US6984719B1, “Peptide antagonists of prostaglandin F2α receptor” (Hospital Sainte-Justine, priority 1998, dated 2006).)
